Experiment [1] concerns the target T1, Biotinylated Human CD27 Ligand, HIS, Avitag (ACRO biosystem, CDL-H82Q9) (human, UniProt P32970 39-193, biotinylated (Avitag)).
T1 construct: Bought reagent; also called Acro-CD70-his-Bio; CD70-his-Bio; not shown: His tag and Avitag
T1 sequence (looked up): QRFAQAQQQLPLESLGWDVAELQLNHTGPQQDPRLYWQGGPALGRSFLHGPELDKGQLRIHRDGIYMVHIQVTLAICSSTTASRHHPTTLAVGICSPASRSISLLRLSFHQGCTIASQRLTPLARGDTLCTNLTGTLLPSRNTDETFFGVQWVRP
The experiment can be described thus: phage ELISA. Background: In an ELISA, binding on a coated surface is turned into a signal by an enzyme label.

For experiment [2], the target named is T2, Biotinylated Human CD27 Ligand, Avitag, human Fc Tag (ACRO biosystem, TN7-H82F4) (human, UniProt P32970 39-193, biotinylated (Avitag)).
T2 construct: Bought reagent; also called Acro-CD70-Fc-Bio; not shown: human Fc tag and Avitag
T2 sequence (looked up): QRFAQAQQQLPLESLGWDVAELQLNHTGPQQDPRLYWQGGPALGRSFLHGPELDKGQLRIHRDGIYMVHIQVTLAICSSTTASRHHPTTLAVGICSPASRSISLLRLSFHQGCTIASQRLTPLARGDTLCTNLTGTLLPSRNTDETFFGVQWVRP
As to the kind of experiment: phage ELISA.

The target in experiment [3] is T3, Human CD70/CD27 Ligand Protein (human FC Tag)-Biotin (Kactus, CD7-HM270) (human, UniProt P32970 39-193, biotinylated).
T3 construct: Bought reagent; also called Kactus-CD70-Fc-Bio; Katcus-CD70-Fc-Bio; not shown: human Fc tag
T3 sequence (looked up): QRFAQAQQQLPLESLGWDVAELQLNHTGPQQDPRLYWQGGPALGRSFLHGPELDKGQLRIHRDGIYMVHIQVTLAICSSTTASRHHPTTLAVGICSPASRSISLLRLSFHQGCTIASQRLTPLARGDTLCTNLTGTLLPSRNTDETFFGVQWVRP
As to the kind of experiment: phage ELISA.

Experiment [4] has as its target T4, Human CD70/CD27 Ligand Protein-his-Trimer-Biotin (Kactus, CD7-HM271) (human, UniProt P32970 39-193, biotinylated).
T4 construct: Bought reagent, named a trimer; also called Kactus-CD70Trimer-his-Bio; Katcus-CD70 Trimer-His-Bio; not shown: His tag (and any trimerisation part)
T4 sequence (looked up): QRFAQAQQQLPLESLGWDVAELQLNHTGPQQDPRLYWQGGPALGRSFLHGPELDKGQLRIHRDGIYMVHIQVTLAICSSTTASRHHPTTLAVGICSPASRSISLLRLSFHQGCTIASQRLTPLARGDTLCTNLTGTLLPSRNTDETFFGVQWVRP
The experiment can be described thus: phage ELISA.

For experiment [5], the target named is T5, Human CD70/CD27 Ligand Protein-his-Trimer (Kactus, CD7-HM271-1) (human, UniProt P32970 39-193).
T5 construct: Bought reagent, named a trimer; also called Kactus-CD70 Trimer-his; Kactus-CD70Trimer-his; not shown: His tag (and any trimerisation part)
T5 sequence (looked up): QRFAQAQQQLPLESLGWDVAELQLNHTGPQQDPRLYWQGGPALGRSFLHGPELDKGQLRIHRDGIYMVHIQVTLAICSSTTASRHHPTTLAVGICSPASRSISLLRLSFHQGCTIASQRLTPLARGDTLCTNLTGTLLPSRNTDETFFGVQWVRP
The experiment can be described thus: phage ELISA.

Experiment [6] concerns the target T6, Biotinylated Human Siglec-2/CD22 Protein, human Fc, Avitag (ACRO biosystem, SI2-H82F8) (human, UniProt P20273 20-687, biotinylated (Avitag)).
T6 construct: Irrelevant control antigen; also called Acro-CD22-Bio; CD22-Fc-Bio; not shown: human Fc and Avitag
T6 sequence (looked up): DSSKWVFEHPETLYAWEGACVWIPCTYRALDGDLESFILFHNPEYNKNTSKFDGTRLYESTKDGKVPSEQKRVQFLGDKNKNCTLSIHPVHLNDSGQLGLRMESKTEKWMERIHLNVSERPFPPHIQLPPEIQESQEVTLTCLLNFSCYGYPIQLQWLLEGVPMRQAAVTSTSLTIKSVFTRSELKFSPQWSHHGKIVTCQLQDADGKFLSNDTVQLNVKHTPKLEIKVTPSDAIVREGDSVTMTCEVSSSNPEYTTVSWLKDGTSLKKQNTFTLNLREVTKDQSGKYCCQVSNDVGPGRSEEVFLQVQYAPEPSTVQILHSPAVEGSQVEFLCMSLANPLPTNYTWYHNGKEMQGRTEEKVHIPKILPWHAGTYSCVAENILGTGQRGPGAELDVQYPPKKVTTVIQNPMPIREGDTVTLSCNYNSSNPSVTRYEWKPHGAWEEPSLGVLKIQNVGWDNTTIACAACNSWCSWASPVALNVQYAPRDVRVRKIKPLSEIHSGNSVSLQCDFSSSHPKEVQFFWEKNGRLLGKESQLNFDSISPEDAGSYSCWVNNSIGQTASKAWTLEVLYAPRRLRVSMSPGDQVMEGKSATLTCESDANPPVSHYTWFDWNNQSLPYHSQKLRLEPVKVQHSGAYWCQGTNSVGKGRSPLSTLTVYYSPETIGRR
As to the kind of experiment: phage ELISA.

For experiment [7], the target named is T7, CD70 on the cell surface of CD70-positive cell lines (UniProt P32970 1-193, limits assumed).
T7 construct: whole, on cells; One molecule for all cell lines; the cell line is named under assay; also called natural CD70 on the cell surface; CD70 antigen on Raji, U266, THP-1, RS4:11, REH, Molm-13 cells
T7 sequence (looked up): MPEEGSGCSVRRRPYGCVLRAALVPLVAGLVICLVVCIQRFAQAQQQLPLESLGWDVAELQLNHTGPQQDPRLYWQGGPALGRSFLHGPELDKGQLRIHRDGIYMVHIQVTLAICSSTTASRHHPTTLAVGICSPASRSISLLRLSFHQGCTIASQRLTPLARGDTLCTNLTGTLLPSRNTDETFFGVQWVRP
As to the kind of experiment: phage FACS on CD70-positive cell lines (Raji, U266).

The text below walks through data of patent US20230399412A1 (NANJING IASO BIOTECHNOLOGY, published 2023).

B1: phage monoclonal antibody clone #21 (VHH)
VHH: EVQLLESGGGLVQPGGSLRLSCAASGFTFSNYAMGWVRQAPGKGLEWVSSITGLGGNMYYADSVKGRFTISRDNSKNTLYLQMNSLRAEDTAVYYCARMYYSQGVNNYSYPSTDIWGQGTLVTVSS
notes: single-domain antibody (heavy chain variable region alone); also called VHH21; VHH 21
On to B1, for which the binding result in experiment [1] is “binds”; in experiment [2] it was “binds”; in experiment [3] it was “binds”; in experiment [4], “binds”; in experiment [5], “binds”; in experiment [6], “no binding”. Further, the binding result in experiment [7] was “binds”.

B2: phage monoclonal antibody clone #9 (VHH)
VHH: EVQLLESGGGLVQPGGSLRLSCAASGFTFNIDAMGWVRQAPGKGLEWVSSISSSGGTTYYADSVKGRFTISRDNSKNTLYLQMNSLRAEDTAVYYCARSRYSVPDGRGSYDVWGQGTLVTVSS
notes: single-domain antibody (heavy chain variable region alone); also called VHH 09; 09 antibody
Consider B2, for which the binding result is recorded as “binds” in experiment [1]; “binds” in experiment [2]; “binds” in experiment [3]; “binds” in experiment [4]; “binds” in experiment [5]; “no binding” in experiment [6]. Also, in experiment [7], the binding result is reported as “binds”.

B3: phage monoclonal antibody clone #6 (scFv)
scFv: QAVLTQPPSASATPGQRVSISCSGSSSNIGRNTVNWYQHLPGTAPKLLIYSNDHRPSGVPDRFSGSQSGTSASLAISGLQSEDEADYYCASWDDSLTGWVFGGGTKVTVLGSRGGGGSGGGGSGGGGSLEMAQVQLVQSGAEVKKAGSSLKVSCKANGGSFTNYLINWVRQAPGQGLEWMGGIIPVYGTPIYSQKFQGRVTFTADEPTRTAYMELSSLTFEDTAVYYCVREDEGYGDLYLAYWGQGTLVTVSS
notes: also called scFv 06; Scfv06
For B3, the binding result in experiment [1] is reported as “binds”; in experiment [2] it was “binds”; in experiment [3] it was “binds”; in experiment [4], “binds”; in experiment [5], “binds”; in experiment [6], “no binding”. The binding result in experiment [7] is given as “binds”.

B4: phage monoclonal antibody clone #20 (VHH)
VHH: EVQLLESGGGLVQPGGSLRLSCAASGFTFSSYAMGWVRQAPGKGLEWVSSISGYGEETYYADSVKGRFTISRDNSKNTLYLQMNSLRAEDTAVYYCARFYYRYWKEFDYWGQGTLVTVSS
notes: single-domain antibody (heavy chain variable region alone); also called VHH20; VHH 20
In the case of B4, the binding result in experiment [1] is “binds”; in experiment [2], “binds”; in experiment [3] it was “binds”; in experiment [4], “binds”; in experiment [5] it was “binds”; in experiment [6], “no binding”. The binding result in experiment [7] is recorded as “binds”.

B5: phage monoclonal antibody clone #13 (VHH)
VHH: EVQLLESGGGLVQPGGSLRLSCAASGFTFSSEAMGWVRQAPGKGLEWVSSINGSGRNTYYADSVKGRFTISRDNSKNTLYLQMNSLRAEDTAVYYCARKHGEYYDSGYDVWGQGTLVTVSS
notes: single-domain antibody (heavy chain variable region alone); also called VHH13; VHH 13
B5: the binding result in experiment [6] is recorded as “no binding”.
